{"source": "paper PMC7055914", "biological_target": "S. Typhi PltB (pertussis-like toxin B subunit) homopentamer (Salmonella enterica serovar Typhi) (UniProt Q8Z6A3)", "assay": "[…], sodium acetate pH 4.4) […]", "data": [{"substance": "S. Typhi PltB (pertussis-like toxin B subunit) homopentamer (from UniProt Q8Z6A3) (natural protein)", "values": [{"measurement": "stoichiometry N", "value": 5}]}]}
